Measured values taken from paper PMC6724690 (Molecular Biology of the Cell, 2019).

B1: Alp14 (residues 1–690) C-terminally fused to mNeonGreen (domain or fragment)
chain: MSQDQEEDYSKLPLESRIVHKVWKVRLSAYEECSKSFSLSADGSDNCFELWNNQSELWKSVLTDSNVAAQEAGTAAFVAYCRFSDPSHLLKAREISVLSISEKCLTSPRAGTRENALEALMLLVEADSAAPVIESIIPSLSARSPKVIASNVAAIASLVEQFGAKVIPSKMIIPHISNLFGHADKNVRKEASRLTVNIYRWTGDPLKDLLFKDLRPVQTKELESLFAELPTEPPKQTRFLKSQQPTSEPNVETQVEEQPALENEESEPEPSDDQFDLVEEVDVLPNVDPNLETLMASSKWKDRKEALDKLLPVLSQPKIKDNDFFNLVAILTKSVSKDANIMVVINAAHCIQAMAKGLRSNFSKYASTSINALLERSKEKKANVIESLSSAMDAVLATSSLDDLAELIASFAGNKNPQIKSSCFSLFSRSFSNMTSLPSKFTVDTCAKACVPGVSDTFEPVRSAAAEALGVLMKLVGERAINQYLSPLDDIRKSKIRSFYETATVKAKAPTKKSKVKPSKQEESKVVVPSNAKAVKKSVVPSSPVVPSPRKATNKSLSMDVSKGNAFENGPLLPRPTTRPVSRGLSRGTSSSLQQKVKASTPLNSGALNETVQNLKNMELDDPAPQPAKHSRVDRYEHPKVLEDNDSTISSLESLKRENEELREQLKVEHEENISMQKQLSELKGELNTL
B2: C-terminal-SNAPf-tagged Alp14 (residues 1–690), labelled with SNAP-surface Atto-488 (domain or fragment, S. pombe, UniProt O94534 1-690, looked up)
chain: MSQDQEEDYSKLPLESRIVHKVWKVRLSAYEECSKSFSLSADGSDNCFELWNNQSELWKSVLTDSNVAAQEAGTAAFVAYCRFSDPSHLLKAREISVLSISEKCLTSPRAGTRENALEALMLLVEADSAAPVIESIIPSLSARSPKVIASNVAAIASLVEQFGAKVIPSKMIIPHISNLFGHADKNVRKEASRLTVNIYRWTGDPLKDLLFKDLRPVQTKELESLFAELPTEPPKQTRFLKSQQPTSEPNVETQVEEQPALENEESEPEPSDDQFDLVEEVDVLPNVDPNLETLMASSKWKDRKEALDKLLPVLSQPKIKDNDFFNLVAILTKSVSKDANIMVVINAAHCIQAMAKGLRSNFSKYASTSINALLERSKEKKANVIESLSSAMDAVLATSSLDDLAELIASFAGNKNPQIKSSCFSLFSRSFSNMTSLPSKFTVDTCAKACVPGVSDTFEPVRSAAAEALGVLMKLVGERAINQYLSPLDDIRKSKIRSFYETATVKAKAPTKKSKVKPSKQEESKVVVPSNAKAVKKSVVPSSPVVPSPRKATNKSLSMDVSKGNAFENGPLLPRPTTRPVSRGLSRGTSSSLQQKVKASTPLNSGALNETVQNLKNMELDDPAPQPAKHSRVDRYEHPKVLEDNDSTISSLESLKRENEELREQLKVEHEENISMQKQLSELKGELNTL
modifications: SNAP-surface Atto-488 fluorophore covalently attached to the SNAP tag

What was measured:
[1] = target: porcine αβ-tubulin, as dynamic microtubules polymerizing from soluble αβ-tubulin (porcine) (UniProt P02550); assay: TIRF microscopy of dynamic microtubules
[2] = target: the molecule itself; assay: single-molecule fluorescence intensity distribution
[3] = target: porcine αβ-tubulin, as dynamic microtubules polymerizing from soluble αβ-tubulin (porcine) (UniProt P02550); assay: single-molecule TIRF microscopy of dynamic microtubules

Binder | average MT plus-end tracking ratio [1] | average tracking time at MT plus ends [1] [s] | stoichiometry N [2] | mean dwell time at polymerizing MT plus ends [3] [s]
B1 | 0.89 | 125 |  | 
B2 |  |  | 2 | 129
